In US20190161551A1:

Experiments:
[1] = target: human TrkB extracellular domain (aa Cys32-His430) expressed with the Fc portion of human IgG1 at the C-terminus (human); assay: competition ELISA, 500 pM hTrkB-hFc pre-mixed with mAb, plate-coated hNT-4
[2] = target: human TrkB extracellular domain (aa Cys32-His430) expressed with the Fc portion of human IgG1 at the C-terminus (human); assay: competition ELISA, 500 pM hTrkB-hFc pre-mixed with mAb, plate-coated hBDNF

Sequence of human TrkB extracellular domain (aa Cys32-His430) expressed with the Fc portion of human IgG1 at the C-terminus (human) (chain, as listed by the source limits assumed): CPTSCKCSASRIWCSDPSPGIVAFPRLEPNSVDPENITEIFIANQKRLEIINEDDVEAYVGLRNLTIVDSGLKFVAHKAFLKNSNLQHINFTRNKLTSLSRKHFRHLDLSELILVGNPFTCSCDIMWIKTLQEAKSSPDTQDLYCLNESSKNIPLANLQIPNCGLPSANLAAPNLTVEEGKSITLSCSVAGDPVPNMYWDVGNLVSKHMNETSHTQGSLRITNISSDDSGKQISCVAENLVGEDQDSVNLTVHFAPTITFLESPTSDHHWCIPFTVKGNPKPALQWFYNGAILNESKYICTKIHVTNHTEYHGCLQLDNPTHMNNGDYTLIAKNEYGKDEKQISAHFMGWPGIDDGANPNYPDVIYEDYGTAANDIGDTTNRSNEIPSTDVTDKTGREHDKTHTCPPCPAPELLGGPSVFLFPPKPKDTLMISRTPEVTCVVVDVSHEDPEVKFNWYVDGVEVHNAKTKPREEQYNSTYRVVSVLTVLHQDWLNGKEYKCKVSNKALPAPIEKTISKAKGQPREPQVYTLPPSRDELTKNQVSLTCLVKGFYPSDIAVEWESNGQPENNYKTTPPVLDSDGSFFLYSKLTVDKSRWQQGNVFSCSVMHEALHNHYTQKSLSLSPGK

Question: Which results are given for “hIgG4 negative isotype control (antibody)”?
Answer: % Blockade with 100 nM antibody [1]: -45%; % Blockade with 100 nM antibody [2]: -31%

Question: Which results are given for “mIgG1 negative isotype control (antibody)”?
Answer: % Blockade with 100 nM antibody [1]: -14%; % Blockade with 100 nM antibody [2]: -19%
